From article doi:10.1101/2021.02.23.432414
Read-outs that look alike come from different tables or passages of the source.

Tests used:
[1] = target: fluorescently labelled double-cysteine variant of outer membrane protein X (OmpX_(1,149)), unfolded (UniProt P0A917); assay: single-molecule FRET
[2] = target: fluorescently labelled double-cysteine variant of outer membrane protein X (OmpX_(1,149)), unfolded (UniProt P0A917); assay: single-molecule FRET; remark: listed apart in the source

Chain of UniProt P0A917 (P0A917 24-171, change not shown): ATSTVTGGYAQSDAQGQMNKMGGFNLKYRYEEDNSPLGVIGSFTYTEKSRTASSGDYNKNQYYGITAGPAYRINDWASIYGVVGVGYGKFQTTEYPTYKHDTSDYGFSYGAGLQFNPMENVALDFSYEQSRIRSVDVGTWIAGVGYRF

Row | c1/2 [2] [nM] | dH [2] [kcal/mol] | percent of uOmpX bound at 2.5 uM Skp3 [2] [%] | Molecule | c1/2 [1] [nM] | dH [1] [kcal/mol] | percent of uOmpX bound at ~6 uM SurA [1] [%]
1 |  |  |  | survival factor A (SurA) (from UniProt P0ABZ6 21-428) (natural protein) | 407 | -31.5 | 87
2 | 359 | -71.2 | 80 | seventeen-kilodalton protein (Skp), trimer (natural protein) ADKIAIVNMGSLFQQVAQKTGVSNTLENEFKGRASELQRMETDLQAKMKKLQSMKAGSDRTKLEKDVMAQRQTFAQKAQAFEQDRARRSNEERGKLVTRIQTAVKSVANSQDIDLVVDANAVAYNSSDVKDITADVLKQVK |  |  | 
